In patent US20120129766A1 (IRM, published 2012):
Numbering of substitutions follows the chain as printed. Names may count otherwise.

B1: hFGF21(33-209)-V83 (ligand)
chain: DSSPLLQFGGQVRQRYLYTDDAQQTEAHLEIREDGTVGGAADQSPESLLELKALKPGVIQILGVKTSRFLCQKPDGTLYGSLHFDPEACSFRELLLEDGYNVYQSEAHGLPLHLPGNRSPHCDPASRGPARFLPLPGLPPALPEPPGILAPQPPDVGSSDPLAMVGPSQARSPSYAS
B2: hFGF21(33-209)-V84 (ligand)
chain: B1 chain with K73R, A107T
B3: hFGF21(33-209)-V85 (ligand)
chain: B1 chain with D42H, T77A, D98E, S126P, R127Q, A170G
B4: hFGF21(33-209)-V86 (ligand)
chain: B1 chain with E50Q, K52R, K55R, K65R, K73R, T77A, C122K, S126P, L142P, A170G
B5: hFGF21(33-209)-V87 (ligand)
chain: DSSPLLQFGGQVRQRYLYTDDACQTEAHLEIREDGTVGGAADQSPESLLQLRALRPGVIQILGVRTSRFLCQRPDGALYGSLHFDPEACSFRELLLEDGYNVYQSEAHGLPLHLPCNRSPHKDPAPRGPARFLPLPGLPPAPPEPPGILAPQPPDVGSSDPLAMVGPSQGRSPSYAS
B6: hFGF21(33-209)-WT-CH (ligand)
chain: B1 chain with E50Q, K73R, T77A, R118K, C122R, S126P, A163S, A170G
B7: hFGF21(33-209)-WT-R154C (ligand)
chain: B1 chain with E50Q, K73R, T77A, R118K, S126P, A163S, A170G
B8: hFGF21(33-209)-WT-R154C-40 kDa bPEG-MA (ligand)
chain: B1 chain with E50Q, K73R, T77A, R118K, S126P, A163S, A170G
modifications: 40 kDa branched maleimido-PEG on Cys 154 (numbered on SEQ ID NO:1)
B9: hFGF21(33-209)-WT-N-40 kDa bPEG-AL (ligand)
chain: B1 chain with E50Q, K73R, T77A, R118K, C122R, S126P, A163S, A170G
modifications: 40 kDa branched PEG (aldehyde reagent) on the N-terminal amine
B10: hFGF21(33-209)-WT-AM (ligand)
chain: B5 chain with C23Q, R52K, R55K, R65K, C116G, R118K, K122R, A163S

Target: T1, human β-klotho (human, UniProt Q86Z14 1-1044)
T1 sequence (looked up): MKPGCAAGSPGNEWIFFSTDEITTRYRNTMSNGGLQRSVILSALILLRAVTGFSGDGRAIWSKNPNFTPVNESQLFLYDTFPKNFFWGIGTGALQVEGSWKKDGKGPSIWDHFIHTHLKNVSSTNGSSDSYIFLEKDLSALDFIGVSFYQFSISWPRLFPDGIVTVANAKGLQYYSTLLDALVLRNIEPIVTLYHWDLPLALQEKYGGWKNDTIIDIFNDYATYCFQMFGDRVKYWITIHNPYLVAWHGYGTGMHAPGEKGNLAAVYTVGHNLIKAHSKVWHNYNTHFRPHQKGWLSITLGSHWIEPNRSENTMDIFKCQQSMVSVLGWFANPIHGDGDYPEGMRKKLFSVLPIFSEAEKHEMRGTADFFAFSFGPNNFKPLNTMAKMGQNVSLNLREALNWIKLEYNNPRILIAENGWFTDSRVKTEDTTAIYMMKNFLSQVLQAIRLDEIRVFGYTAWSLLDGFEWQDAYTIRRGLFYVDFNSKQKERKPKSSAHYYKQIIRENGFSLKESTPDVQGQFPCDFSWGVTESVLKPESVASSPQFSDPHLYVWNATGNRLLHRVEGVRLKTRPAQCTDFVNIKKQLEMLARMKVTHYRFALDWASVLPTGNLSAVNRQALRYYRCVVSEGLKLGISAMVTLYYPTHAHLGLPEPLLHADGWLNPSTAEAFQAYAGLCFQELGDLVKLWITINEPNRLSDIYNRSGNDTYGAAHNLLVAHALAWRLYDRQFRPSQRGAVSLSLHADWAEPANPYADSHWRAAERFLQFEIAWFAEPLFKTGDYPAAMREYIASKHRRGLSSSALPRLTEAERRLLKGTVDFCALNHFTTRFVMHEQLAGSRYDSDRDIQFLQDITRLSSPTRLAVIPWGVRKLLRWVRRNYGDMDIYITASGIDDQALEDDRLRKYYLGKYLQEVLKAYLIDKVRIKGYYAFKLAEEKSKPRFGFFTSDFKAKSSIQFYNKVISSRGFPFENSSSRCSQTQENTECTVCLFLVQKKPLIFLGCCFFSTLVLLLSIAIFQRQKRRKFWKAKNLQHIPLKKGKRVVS
Assay: cell-based or functional assay

Row | Binder | EC50 (nM), pERK In Cell Western | Fold-WT (EC50 of variant / EC50 of FGF21-WT)
1 | B1 | 0.21 nM | 0.38 fold
2 | B2 | 4.5 nM | 1.1 fold
3 | B3 | 2 nM | 0.3 fold
4 | B4 | 8.5 nM | 4.5 fold
5 | B5 | 1.9 nM | 1.6 fold
6 | B6 | 7.4 nM | 1 fold
7 | B7 | 4.2 nM | 1.3 fold
8 | B8 | 9 nM | 2.9 fold
9 | B9 | 20 nM | 6.3 fold
10 | B10 | 5.7 nM | 1.5 fold
